# Test results as given in patent publication US20070071744A1.
# “And” between values parts separate entries of the source, which are not always exact repeats. Identical values can stand only once.
# How the values were obtained:
# [1] = biological target: Fc-GPVI-nt (immunoadhesin: extracellular domain of human GPVI fused via Gly-Gly-Arg to human IgG Fc, dimer) (human); experiment: competition ELISA, immobilized collagen as competitor
# [2] = biological target: T1, peptide 118 (human); experiment: PepSpot peptide array, control incubation
# T1 sequence (peptide, N-terminus acetylated): TNKVFTTETSRSI
# [3] = biological target: T2, peptide 117 (human); experiment: PepSpot peptide array, control incubation
# T2 sequence (peptide, N-terminus acetylated): SFTNKVFTTETSR
# [4] = biological target: T3, peptide 7 (human); experiment: PepSpot peptide array, control incubation
# T3 sequence (peptide, N-terminus acetylated): LCLGRVPAQSGPL
# [5] = biological target: mouse GPVI on mouse platelets (mouse) (UniProt P0C191); experiment: cell-based or functional assay
# Chain of mouse GPVI on mouse platelets (mouse) (P0C191 22-313): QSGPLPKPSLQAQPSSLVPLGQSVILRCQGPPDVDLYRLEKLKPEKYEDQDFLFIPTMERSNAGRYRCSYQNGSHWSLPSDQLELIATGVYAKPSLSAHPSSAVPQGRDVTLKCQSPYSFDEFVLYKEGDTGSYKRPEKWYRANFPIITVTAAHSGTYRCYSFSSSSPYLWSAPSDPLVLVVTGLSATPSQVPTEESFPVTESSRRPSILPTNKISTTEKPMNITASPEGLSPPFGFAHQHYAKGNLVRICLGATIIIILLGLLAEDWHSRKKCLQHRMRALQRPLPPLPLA
# Chain of Fc-GPVI-nt (immunoadhesin: extracellular domain of human GPVI fused via Gly-Gly-Arg to human IgG Fc, dimer) (human) (chain, as listed by the source limits assumed): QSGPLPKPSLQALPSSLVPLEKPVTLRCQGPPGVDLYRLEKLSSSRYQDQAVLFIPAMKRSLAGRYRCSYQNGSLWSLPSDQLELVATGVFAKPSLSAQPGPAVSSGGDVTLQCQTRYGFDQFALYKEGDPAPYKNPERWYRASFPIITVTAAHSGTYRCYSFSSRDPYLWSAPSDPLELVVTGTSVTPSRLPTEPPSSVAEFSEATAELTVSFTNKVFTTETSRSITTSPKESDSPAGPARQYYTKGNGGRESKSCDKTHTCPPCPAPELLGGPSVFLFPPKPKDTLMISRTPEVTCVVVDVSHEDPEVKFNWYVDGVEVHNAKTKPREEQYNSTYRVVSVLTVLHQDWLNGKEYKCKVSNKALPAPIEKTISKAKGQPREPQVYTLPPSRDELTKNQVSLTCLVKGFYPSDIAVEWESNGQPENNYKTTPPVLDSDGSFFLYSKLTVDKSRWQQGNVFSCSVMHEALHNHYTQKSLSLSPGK
substance,measurement,setting,value
soluble collagen (solubilized fibrillar collagen) (ligand),concentration required to reduce Fc-GPVI-nt binding by more than 50%,[1],100 µg/mL
anti-rat-HRP (Sigma A9037) (antibody),LU (Light Units),[2],354 LU
same,LU (Light Units),[3],377 LU
same,LU (Light Units),[4],239 LU
monoclonal antibody anti GPVI (JAQ1),ATP release,[5],1.09 nM ATP
same,platelet aggregation of mouse platelet-rich plasma after stimulation with 2 µg collagen/ml,[5],2% and 1.5%
